Reference: US20090202526A1 (RINAT NEUROSCIENCE, published 2009)
Numbering of substitutions follows the chain as printed. Values joined by “and” are separate entries in the source; they are usually repeats but may differ in a detail not shown here. Equal entries are not always repeated.

B1: Antibody A5, full IgG (antibody, V domains shown)
VH: QVQLVQSGAEVKKPGASVKVSCKASGYTFTSYRIHWVRQAPGQGLEWMGEIYPSNARTNYNEKFKSRVTMTRDTSTSTVYMELSSLRSEDTAVYYCARKYYYGNTRRSWYFDVWGQGTTVTVSS
VL: DIQMTQSPSSLSASVGDRVTITCRASESIDNYGISFLAWYQQKPGKAPKLLIYAASNRGSGVPSRFSGSGSGTDFTFTISSLQPEDIATYYCQQSKTVPRTFGQGTKLEIKR
B2: Mouse monoclonal agonist anti-trkC antibody 2256 (antibody, V domains shown)
VH: QVQLQQPGAELVKPGASVKLSCKASGYTFTSYWMHWVKQRPGQGLEWIGEIYPSNGRTNYNEKFKSKATLTVDKSSSTAYMQLSSLTSEDSAVYYCARKYYYGNSYRSWYFDVWGAGTTLTVS
VL: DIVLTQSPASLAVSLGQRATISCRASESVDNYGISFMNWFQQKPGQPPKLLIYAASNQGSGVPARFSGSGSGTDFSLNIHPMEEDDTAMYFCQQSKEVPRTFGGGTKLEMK
notes: Mouse monoclonal antibody
B3: Fab A5, clone 129(T8)(H8xE10)(10B)(A5) (Fab, V domains shown)
VH: QVQLVQSGAEVKKPGASVKVSCKASGYTFTSYRIHWVRQAPGQGLEWMGEIYPSNARTNYNEKFKSRVTMTRDTSTSTVYMELSSLRSEDTAVYYCARKYYYGNTRRSWYFDVWGQGTTVTVS
VL: B1 VL
notes: purified on Ni-NTA; also called A5 (Fab)
B4: Fab 2256 (parent) (Fab, V domains shown)
VH: B2 VH
VL: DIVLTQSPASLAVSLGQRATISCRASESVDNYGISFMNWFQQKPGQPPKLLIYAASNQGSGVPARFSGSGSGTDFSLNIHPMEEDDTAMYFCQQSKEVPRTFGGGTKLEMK
B5: Fab clone 129(T8)(H8xE10)(10B) (Fab, V domains shown)
VH: B3 VH with A56S, T105S
VL: B1 VL
B6: Fab clone 129(T8)(H8xE10)(4B) (Fab, V domains shown)
VH: B3 VH with A56S, R72G, T105S
VL: B1 VL
B7: Fab clone 129(T8)(H8xE10)(10B)(C7) (Fab, V domains shown)
VH: B3 VH with A56T
VL: B1 VL
B8: Fab clone 129(T8)(H8xE10)(10B)(E2) (Fab, V domains shown)
VH: B3 VH with A56G
VL: B1 VL
B9: Fab clone 129(T8)(H8xE10) (Fab, V domains shown)
VH: B3 VH with A56S, V68A, R72G, T74K, T105S
VL: B1 VL
B10: Fab clone 129(T8) (Fab, V domains shown)
VH: B3 VH with R33W, I34M, A56G, V68A, R72G, T74K, T105S
VL: B1 VL with I29V, L37M, A38N, R58Q
B11: Fab clone 129(C28) (Fab, V domains shown)
VH: B3 VH with R33W, I34M, A56G, V68A, R72G, E82Q, T105S, R106Q
VL: B1 VL with I29V, L37M, A38N, K46Q, R58Q
B12: Fab clone 129(T34) (Fab, V domains shown)
VH: B3 VH with R33W, I34M, A56G, E82Q, T105S
VL: B1 VL with I29V, L37M, A38N, K46Q, A47P, R58Q
B13: Fab clone 129(T8)(H8xE10)(9A) (Fab, V domains shown)
VH: B3 VH with A56S, V68A, T74K, T105S
VL: B1 VL
B14: Fab clone 129(C14) (Fab, V domains shown)
VH: B3 VH with R33W, I34M, A56G, T74K, E82H, T105S
VL: B1 VL with I29V, L37M, A38N, K46Q, R58Q, T97E
B15: Fab clone 129(T8)(E10) (Fab, V domains shown)
VH: B3 VH with I34L, A56G, K65E, V68A, R72G, T74K, T105S
VL: B1 VL
notes: Light chain changes are the same as in A5
B16: Fab clone 129(T8)(H9) (Fab, V domains shown)
VH: B3 VH with R33W, I34R, A56G, V68A, R72G, T74K, T105S
VL: B1 VL with I29V, L37M, A38N
B17: Fab clone 129(T8)(H8) (Fab, V domains shown)
VH: B3 VH with A56S, V68A, R72G, T74K, T105S
VL: B1 VL with I29V, L37M, A38T, R58L
B18: Fab clone 129(C16) (Fab, V domains shown)
VH: B3 VH with R33W, I34M, A56G, R72L, E82Q, T105S, R106K
VL: B1 VL with I29V, L37M, A38N, A47P, I52M, R58Q, T97E
B19: Fab clone 129(C26) (Fab, V domains shown)
VH: B3 VH with R33W, I34M, A56G, R72G, T74K, T105S, R106S
VL: B1 VL with I29V, L37M, A38N, K46Q, R58Q, T97S
B20: Fab clone 129(C2) (Fab, V domains shown)
VH: B3 VH with R33W, I34M, A56G, R72G, E82Q, T105S, R106K
VL: B1 VL with I29V, L37M, A38N, K46Q, A47P, R58Q, S69T, T97E
B21: Fab clone 129(C36) (Fab, V domains shown)
VH: B3 VH with R33W, I34M, A56G, R72L, T74K, E82Q, T105S
VL: B1 VL with I29V, L37M, A38N, A47P, R58Q, T97A
B22: Fab clone 129(T8)(E12) (Fab, V domains shown)
VH: B3 VH with R33W, I34L, A56S, V68A, R72G, T74K, T105S
VL: B1 VL with I29V, N31S, L37M, A38N, R58L
B23: Fab clone 129(T6) (Fab, V domains shown)
VH: B3 VH with R33W, I34M, A56G, R72G, E82Q, T105S, R106K
VL: B1 VL with I29V, L37M, A38N, K46Q, R58Q, T97E
B24: Fab clone 129(T26) (Fab, V domains shown)
VH: B3 VH with R33W, I34M, A56G, R72L, T74K, E82Q, T105S
VL: B1 VL with I29V, L37M, A38N, A47P, R58Q, T97A

Target: T1, Human trkA (human, UniProt P04629 33-423, limits assumed)
T1 construct: BIAcore essentially as for trkC; construct not described
T1 sequence (P04629 33-423 limits assumed): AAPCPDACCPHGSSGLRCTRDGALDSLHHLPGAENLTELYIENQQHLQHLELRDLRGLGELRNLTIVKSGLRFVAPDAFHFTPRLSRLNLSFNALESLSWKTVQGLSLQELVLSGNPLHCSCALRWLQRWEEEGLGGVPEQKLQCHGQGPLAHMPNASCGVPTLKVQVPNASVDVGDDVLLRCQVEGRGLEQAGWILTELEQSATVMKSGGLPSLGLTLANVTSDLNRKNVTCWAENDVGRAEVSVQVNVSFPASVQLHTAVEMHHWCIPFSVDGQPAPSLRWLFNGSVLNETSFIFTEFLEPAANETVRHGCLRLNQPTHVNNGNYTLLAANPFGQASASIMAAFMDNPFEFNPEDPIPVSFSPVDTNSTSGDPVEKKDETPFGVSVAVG
Test: BIAcore SPR

Row | Binder | binding result
1 | B1 | no binding

Target: T2, Rat trkA (rat, UniProt P35739 33-418, limits assumed)
T2 construct: BIAcore essentially as for trkC; construct not described
T2 sequence (P35739 33-418 limits assumed): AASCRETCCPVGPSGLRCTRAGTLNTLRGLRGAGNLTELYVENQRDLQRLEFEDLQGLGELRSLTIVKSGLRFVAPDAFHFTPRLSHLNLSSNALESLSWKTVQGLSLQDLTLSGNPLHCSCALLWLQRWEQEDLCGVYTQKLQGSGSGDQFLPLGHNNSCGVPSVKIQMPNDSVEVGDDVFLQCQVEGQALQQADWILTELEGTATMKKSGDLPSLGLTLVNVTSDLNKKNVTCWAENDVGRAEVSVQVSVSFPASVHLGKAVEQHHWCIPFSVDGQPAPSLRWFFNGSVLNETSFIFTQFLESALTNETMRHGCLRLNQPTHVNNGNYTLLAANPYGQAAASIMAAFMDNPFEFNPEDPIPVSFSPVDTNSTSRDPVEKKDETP
Test: BIAcore SPR

Row | Binder | binding result
2 | B1 | no binding

Target: T3, Human trkB (human, UniProt Q16620 32-430, limits assumed)
T3 construct: BIAcore essentially as for trkC; construct not described
T3 sequence (Q16620 32-430 limits assumed): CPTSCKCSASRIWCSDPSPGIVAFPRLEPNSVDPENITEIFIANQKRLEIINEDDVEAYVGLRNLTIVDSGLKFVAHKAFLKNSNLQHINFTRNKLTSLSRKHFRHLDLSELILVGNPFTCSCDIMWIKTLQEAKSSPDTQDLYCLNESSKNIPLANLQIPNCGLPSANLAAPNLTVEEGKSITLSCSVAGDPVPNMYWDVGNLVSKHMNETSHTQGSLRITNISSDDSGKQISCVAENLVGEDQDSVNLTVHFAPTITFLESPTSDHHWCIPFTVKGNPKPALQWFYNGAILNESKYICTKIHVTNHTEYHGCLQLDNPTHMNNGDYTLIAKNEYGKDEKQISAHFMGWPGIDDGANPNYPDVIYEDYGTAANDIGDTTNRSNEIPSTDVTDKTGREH
Test: BIAcore SPR

Row | Binder | binding result
3 | B1 | no binding

Target: T4, Rat trkB (rat, UniProt Q63604 32-429, limits assumed)
T4 construct: BIAcore essentially as for trkC; construct not described
T4 sequence (Q63604 32-429 limits assumed): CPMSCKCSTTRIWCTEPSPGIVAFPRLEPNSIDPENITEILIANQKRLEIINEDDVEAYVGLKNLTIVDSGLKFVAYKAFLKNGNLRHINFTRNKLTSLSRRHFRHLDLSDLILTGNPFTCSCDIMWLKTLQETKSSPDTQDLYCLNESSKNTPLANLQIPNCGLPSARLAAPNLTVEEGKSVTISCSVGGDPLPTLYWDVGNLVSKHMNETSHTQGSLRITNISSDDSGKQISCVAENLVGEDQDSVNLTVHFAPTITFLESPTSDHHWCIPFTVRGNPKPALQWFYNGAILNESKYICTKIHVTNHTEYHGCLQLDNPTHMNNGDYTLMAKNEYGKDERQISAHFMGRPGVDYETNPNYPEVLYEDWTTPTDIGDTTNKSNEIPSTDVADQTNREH
Test: BIAcore SPR

Row | Binder | binding result
4 | B1 | no binding

Target: T5, Human trkC-Fc fusion protein (human, UniProt Q16288 32-429)
T5 construct: Immobilised on CM5 chip for BIAcore; also called htrkC; not shown: Fc part not described
Test: BIAcore SPR

Row | Binder | Kd [nM] | fold improvement of affinity over parent antibody 2256 [fold]
5 | B2 | ~62 | 
6 | B3 |  | 200

Target: T6, Human trkC (KIRA assay) (human, UniProt Q16288 32-839, limits assumed)
T6 sequence (Q16288 32-839 limits assumed): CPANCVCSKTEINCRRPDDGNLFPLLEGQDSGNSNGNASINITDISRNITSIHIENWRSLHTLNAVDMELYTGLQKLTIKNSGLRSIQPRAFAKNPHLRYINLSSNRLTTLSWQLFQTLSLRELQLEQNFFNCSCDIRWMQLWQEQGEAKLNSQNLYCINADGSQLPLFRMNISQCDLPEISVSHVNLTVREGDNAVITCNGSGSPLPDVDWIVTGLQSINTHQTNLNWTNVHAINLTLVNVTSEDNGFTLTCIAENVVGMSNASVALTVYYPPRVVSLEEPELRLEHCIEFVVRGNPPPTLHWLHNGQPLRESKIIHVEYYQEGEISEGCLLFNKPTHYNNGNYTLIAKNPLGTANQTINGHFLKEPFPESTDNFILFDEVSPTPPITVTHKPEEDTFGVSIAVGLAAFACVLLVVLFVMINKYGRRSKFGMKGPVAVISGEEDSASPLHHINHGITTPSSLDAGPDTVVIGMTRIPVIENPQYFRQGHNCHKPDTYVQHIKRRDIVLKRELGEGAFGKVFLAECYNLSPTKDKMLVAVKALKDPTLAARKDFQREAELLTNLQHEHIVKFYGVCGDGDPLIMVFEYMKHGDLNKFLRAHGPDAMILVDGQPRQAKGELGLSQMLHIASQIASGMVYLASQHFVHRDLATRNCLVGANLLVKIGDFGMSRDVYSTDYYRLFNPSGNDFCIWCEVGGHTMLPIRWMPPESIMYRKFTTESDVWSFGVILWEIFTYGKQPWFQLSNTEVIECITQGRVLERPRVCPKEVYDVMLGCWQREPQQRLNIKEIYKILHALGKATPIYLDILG
Test: cell-based or functional assay

Row | Binder | EC50, KIRA assay [nM]
7 | B2 | ~40

Target: Rat trkC on trigeminal neurons (rat, UniProt Q03351 32-864)
Sequence (Q03351 32-864): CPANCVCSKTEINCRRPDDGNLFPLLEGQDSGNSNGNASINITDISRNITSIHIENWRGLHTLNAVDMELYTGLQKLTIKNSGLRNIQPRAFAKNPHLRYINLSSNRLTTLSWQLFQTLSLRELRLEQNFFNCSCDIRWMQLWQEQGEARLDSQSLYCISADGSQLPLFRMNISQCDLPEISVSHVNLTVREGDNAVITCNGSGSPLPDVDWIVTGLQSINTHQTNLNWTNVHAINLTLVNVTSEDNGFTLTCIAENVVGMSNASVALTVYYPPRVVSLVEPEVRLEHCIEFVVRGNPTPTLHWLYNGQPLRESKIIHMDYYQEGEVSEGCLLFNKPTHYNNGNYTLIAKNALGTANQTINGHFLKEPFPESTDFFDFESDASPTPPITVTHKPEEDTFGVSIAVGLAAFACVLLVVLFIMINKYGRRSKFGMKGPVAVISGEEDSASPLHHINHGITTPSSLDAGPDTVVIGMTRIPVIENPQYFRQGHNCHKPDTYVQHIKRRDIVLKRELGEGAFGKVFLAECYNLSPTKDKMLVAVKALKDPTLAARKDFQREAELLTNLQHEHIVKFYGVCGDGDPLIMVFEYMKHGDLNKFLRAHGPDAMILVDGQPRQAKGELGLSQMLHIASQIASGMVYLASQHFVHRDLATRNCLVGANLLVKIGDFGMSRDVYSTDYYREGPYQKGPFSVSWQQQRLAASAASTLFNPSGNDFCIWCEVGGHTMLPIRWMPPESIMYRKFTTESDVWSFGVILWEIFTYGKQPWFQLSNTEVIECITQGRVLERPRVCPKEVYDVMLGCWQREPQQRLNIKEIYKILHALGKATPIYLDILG
Test: cell-based or functional assay

Row | Binder | EC50, rat trigeminal neuron survival assay [nM] | EC50, neuron survival [nM]
8 | B2 | ~5 | 
9 | B1 |  | 0.001

Target: T5, Human trkC-Fc fusion protein
Test: BIAcore SPR, Fab on human trkC
Method: (§1) Affinities of anti-trkC Fabs and monoclonal antibodies were determined using the BIAcore 3000™ surface plasmon resonance (SPR) system (BIAcore, INC, Piscaway N.J.). CM5 chips were activated with N-ethyl-N′-(3-dimethylaminopropyl)-carbodiimide hydrochloride (EDC) and N-hydroxysuccinimide (NHS) according to the supplier's instructions. Human or rat trkC-Fc fusion protein was diluted into 10 mM sodium acetate pH 5.0 and injected over the activated chip at a concentration of 0.005 mg/mL. Using variable flow time across the individual chip channels, two ranges of antigen density were achieved: 200-400 response units (RU) for detailed kinetic studies and 500-1000 RU for screening assays. The chip was blocked with ethanolamine. […] HBS-EP buffer (0.01M HEPES, pH 7.4, 0.15 NaCl, 3 mM EDTA, 0.005% Surfactant P20) was used as running buffer for all the BIAcore assays. […] The concentrations of the Fab proteins are determined by ELISA and/or SDS-PAGE electrophoresis using a Fab of known concentration (as determined by amino acid analysis) as a standard. Kinetic association rates (kₒₙ) and dissociation rates (koff) are obtained simultaneously by fitting the data to a 1:1 Langmuir binding model (Karlsson, R. Roos, H. Fagerstam, L. Petersson, B. (1994). Methods Enzymology 6. 99-110) using the BlAevaluation program. Equilibrium dissociation constant (KD) values are calculated as koff/kₒₙ.
(§2) We prepared antibody clones bearing the CDR and/or framework region substitution mutations shown in Table 1 and determine KD and other kinetic parameters using BIAcore analysis as described herein.

Row | Binder | Kd [nM] | koff [s⁻¹]
10 | B4 | 40 | 0.02
11 | B3 | 0.28 | 0.00037

Target: T6, Human trkC (KIRA assay)
Test: cell-based or functional assay
Remark: another data set of the same source

Row | Binder | EC50 (read off the curve), KIRA [nM]
12 | B1 | ~0.1

Target: T7, Rat trkC-Fc fusion protein (rat, UniProt Q03351 32-429)
T7 construct: Immobilised on CM5 chip for BIAcore; not shown: Fc part not described
Test: BIAcore SPR, Fab over immobilised rat trkC-Fc
Method: as §1

Row | Binder | koff | Kd [nM] | kon [M⁻¹ s⁻¹]
13 | B5 | 0.01 s⁻¹ |  | 
14 | B3 | 0.0267 s⁻¹ | 19 | 1.3e+06
15 | B6 | 0.0289 s⁻¹ and 0.0627 s⁻¹ |  | 
16 | B7 | 0.03 s⁻¹ | 39 | 780000
17 | B8 | 0.0094 s⁻¹ | 6 | 1.5e+06
18 | B9 | 0.09 s⁻¹ |  | 

Target: T5, Human trkC-Fc fusion protein
Test: BIAcore SPR, Fab over immobilised human trkC-Fc
Method: as §1, §2

Row | Binder | koff [s⁻¹] | Kd [nM] | kon [M⁻¹ s⁻¹]
19 | B10 | 0.0016 |  | 
20 | B5 | 0.0008 |  | 
21 | B3 | 0.00037 | 0.28 | 1.3e+06
22 | B11 | 0.0019 |  | 
23 | B6 | 0.002 |  | 
24 | B12 | 0.0012 |  | 
25 | B7 | 0.00047 | 1.1 | 420000
26 | B13 | 0.0003 |  | 
27 | B14 | 0.0017 |  | 
28 | B15 | 0.0016 |  | 
29 | B16 | 0.0015 |  | 
30 | B8 | 0.00036 | 0.25 | 1.4e+06
31 | B9 | 0.001 |  | 
32 | B17 | 0.0006 |  | 
33 | B18 | 0.0025 |  | 
34 | B19 | 0.007 |  | 
35 | B20 | 0.0025 |  | 
36 | B21 | 0.002 |  | 
37 | B22 | 0.0009 |  | 
38 | B23 | 0.0034 |  | 
39 | B24 | 0.0012 |  | 

Target: T5, Human trkC-Fc fusion protein
Test: BIAcore SPR; value used in the footnote to calculate KD of the mutants

Row | Binder | kon [M⁻¹ s⁻¹]
40 | B4 | 500000

Target: T5, Human trkC-Fc fusion protein
Test: BIAcore SPR, human trkC-Fc on chip; KD calculated from koff with 2256 kon 5E5 1/Ms

Row | Binder | Kd [nM]
41 | B10 | 3
42 | B5 | 1.6
43 | B11 | 3.6
44 | B6 | 4
45 | B12 | 2.3
46 | B13 | 0.6
47 | B14 | 3.2
48 | B15 | 3.2
49 | B16 | 3
50 | B9 | 2
51 | B17 | 1.2
52 | B18 | 4.7
53 | B19 | 13.2
54 | B20 | 4.7
55 | B21 | 3.8
56 | B22 | 1.8
57 | B23 | 6.4
58 | B24 | 2.3
